# According to patent US20250154283A1 (published 2025):
# T1: biotinylated cynomolgus monkey VWF cysteine knot (CK) domain construct (cynomolgus monkey, biotinylated in vitro (BirA) on the biotinylation tag; one N-glycan)
# T1 construct: Expressed in HEK293 EBNA cells; disulfide-linked homodimer; also called cyno VWF CK; cyno VWF CK domain; not shown: in vitro biotinylation tag, HRV-3C site and 3 VWF residues before the CK domain
# T1 chain: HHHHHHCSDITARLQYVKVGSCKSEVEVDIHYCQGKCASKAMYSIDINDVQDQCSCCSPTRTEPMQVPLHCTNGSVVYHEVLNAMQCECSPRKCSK
# B1: 69_Lib8_scFv (scFv)
# scFv: EVQLVESGGGLVQPGRSLRLSCAASAFTFSNYDMHWVRQAPGKGLEWVSAISGSGDTSDYADSVEGRFTISRDNAKNSLYLQMNSLRAEDTAVYYCVRASWYGTFFDYWGQGTLVTVSSSGGSTITSYNVYYTKLSSSGTDIQMTQSPSSLSASVGDRVTITCRASQSVSGWLAWYQQKPGKAPKLLIYGTSTLQSGVPSRFSGSGSGTDFTLTISSLQPEDVATYYCQQSYSAPYTFGGGTKVEIK
# notes: VH-linker-VL; not shown: C-terminal 3xFLAG and SV5 tags
# B2: 4675_Lib4_scFv (scFv)
# scFv: QVQLQESGPGLVKPSQTLSLTCTVSGFSLTSHPEGVNWIRQPPGKGLEWIGYIAHSGTTDYNPSLKSRVTMSVDTSKNQFSLKVNSVTAADTAVYYCARAYGDSDAFDIWGQGTMVTVSSSGGSTITSYNVYYTKLSSSGTEIVMTQSPATLSLSPGERATLSCRASQSIGRNLAWYQQKPGQAPRLLIYGASKRVTGIPARFSGSGSGTDFTLTISSLEPEDFAVYYCQQYSTWPTFGGGTKVEIK
# notes: as for B1
# B3: 27_Lib4_scFv (scFv)
# scFv: QVQLQESGPGLVKPSQTLSLTCTVSGASFGDHYWSWIRQPPGKGLEWIGYIDATGSIDYNPSLKSRVTMSVDTSKNQFSLKVNSVTAADTAVYYCARVASYYYYMDVWGKGTTVTVSSSGGSTITSYNVYYTKLSSSGTEIVMTQSPATLSLSPGERATLSCRASQSITGSYLAWYQQKPGQAPRLLIYGASDRAPGIPARFSGSGSGTDFTLTISSLEPEDFAVYYCQQYGSFPYTFGGGTKVEIK
# notes: as for B1
# B4: 76_Lib4_scFv (scFv)
# scFv: QVQLQESGPGLVKPSQTLSLTCTVSGVSISNHYWSWIRQPPGKGLEWIGYIDESGSTDYNPSLKSRVTMSVDTSKNQFSLKVNSVTAADTAVYYCARVSWGYYAMDVWGQGTTVTVSSSGGSTITSYNVYYTKLSSSGTEIVMTQSPATLSLSPGERATLSCRASQGVSGHLAWYQQKPGQAPRLLIYETSKRATGIPARFSGSGSGTDFTLTISSLEPEDFAVYYCQQYNDYPLGFGGGTKVEIK
# notes: as for B1
# B5: Lib1_P1_F10_scFv (scFv)
# scFv: QVQLVQSGAEVKKPGASVKVSCKVSGYTFSSSGIHWVRQAPGKGLEWMGGIFPNFGTAIYAQKFQGRVTMTEDTSTDTAYMELSSLKSEDTAVYYCARESDFWSGSFTNWGQGTLVTVSSSGGSTITSYNVYYTKLSSSGTDIQMTQSPSSVSASVGDRVTITCRASRSIGNWLAWYQQKPGKAPKLLIYDAFNRASGVPSRFSGSGSGTDFTLTISSLQPEDFANYYCQQSYSTLPRYSFGGGTKVEIK
# notes: as for B1
# B6: 15244_Lib8_scFv (scFv)
# scFv: EVQLVESGGGLVQPGRSLRLSCAASGFTFADYDMHWVRQAPGKGLEWVSATSSHGVTTDYADSVEGRFTISRDNAKNSLYLQMNSLRAEDTAVYYCARGAWSGIAARQYIDYWGQGTLVTVSSSGGSTITSYNVYYTKLSSSGTDIQMTQSPSSLSASVGDRVTITCRASQTIGYWLAWYQQKPGKAPKLLIYDASVPESGVPSRFSGSGSGTDFTLTISSLQPEDVATYYCQQSYSYPLTFGGGTKVEIK
# notes: as for B1
# B7: 5662_Lib8_scFv (scFv)
# scFv: EVQLVESGGGLVQPGRSLRLSCAASGFNFHNYDMHWVRQAPGKGLEWVSAIDISGQSTDYADSVEGRFTISRDNAKNSLYLQMNSLRAEDTAVYYCAREGWYGGVFDYWGQGTLVTVSSSGGSTITSYNVYYTKLSSSGTDIQMTQSPSSLSASVGDRVTITCRASQDIANWLAWYQQKPGKAPKLLIYGASESGVGVPSRFSGSGSGTDFTLTISSLQPEDVATYYCQQSLTMKTFGGGTKVEIK
# notes: as for B1
# Target: T2, biotinylated human VWF cysteine knot (CK) domain construct (human, UniProt P04275 2724-2813, biotinylated in vitro (BirA) on the biotinylation tag; one N-glycan)
# T2 construct: Expressed in HEK293 EBNA cells; disulfide-linked homodimer; also called human VWF CK; human VWF CK domain; not shown: in vitro biotinylation tag, HRV-3C site and 3 VWF residues before the CK domain
# Assay: SPR, scFv captured via anti-SV5, CK domain injected, pH 5.5, apparent Kd;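 note: scFvs from crude yeast supernatants captured on chip-bound anti-SV5 antibody, Kd computed as koff divided by kon, dimeric CK construct likely makes affinity appear higher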
row,Kd [nM],Binder
1,0.859,B1
2,13.6,B2
3,0.443,B3
4,0.366,B4
5,15.3,B5
6,1.05,B6
7,0.687,B7

# Target: T2, biotinylated human VWF cysteine knot …
# Assay: SPR, scFv captured via anti-SV5, CK domain injected, pH 7.4, apparent Kd;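 note: scFvs from crude yeast supernatants printed on an amine-coupled anti-SV5 lawn, Kd computed as koff over kon, likely overestimating affinity because the CK construct is dimeric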
# Description: (§1) Briefly, a sensor chip was activated and coupled with an anti-SV5 mouse monoclonal antibody using amine coupling. The soluble scFvs in crude yeast supernatants were printed on the anti-SV5 lawn. […] From the measured association (kₒₙ) and dissociation (koff) rate constants, an apparent equilibrium dissociation constant (Kd=koff/kₒₙ) was estimated. Due to the dimeric state of the CK construct and consequent possibility for simultaneous binding of captured scFv to both monomers in the CK dimer, the SPR setup was expected to overestimate the binding affinity.
row,Kd [nM],Binder
1,3.7,B1
2,4.26,B2
3,2.85,B3
4,3.91,B4
5,4.97,B5
6,3.05,B6
7,4.31,B7

# Target: T1, biotinylated cynomolgus monkey VWF …
# Assay: as above
# Description: as §1
row,Kd [nM],Binder
1,1.05,B1
2,2.42,B2
3,0.656,B3
4,1.29,B4
5,1.5,B5
6,1.91,B6
7,1.36,B7
